The values below come from patent US20090060916A1 (published 2009).

Substitutions are numbered along the chain they refer to. Several values for one entry are separate records, joined by “and”; a condition that tells them apart may be missing. Identical values can stand only once.

Sequences and labels used below:
B1: DOM10-213-TVAAPS-DOM9-155-78 (bispecific antibody)
chain: DIQMTQSPSSLSASVGDRVTITCRASQAIPWGLNWYQQKPGKAPKLLIYDVSSLQSGVPSRFSGSGSGTDFTLTISSLQPEDFATYYCQQDIHIPMTFGQGTKVEIKRTVAAPSDIQMTQSPSSLSASVGDRVTITCRASRHIGDWLHWYQQKPGKAPKLLIAWASTLDSGVPSRFSGSGSGTDFTLTISSLQPEDFATYYCLQEGWGPPTFGQGTKVEIKR
notes: in-line fusion, from pDOM5
B2: DOM10-215-TVAAPS-DOM9-155-78 (bispecific antibody)
chain: DIQMTQSPSSLSASVGDRVTITCRASQNIFADLNWYQQKPGKAPKLLIYMGSRLQSGVPSRFSGSGSGTDFTLTISSLQPEDFATYYCQQDYKFPLTFGQGTKVEIKRTVAAPSDIQMTQSPSSLSASVGDRVTITCRASRHIGDWLHWYQQKPGKAPKLLIAWASTLDSGVPSRFSGSGSGTDFTLTISSLQPEDFATYYCLQEGWGPPTFGQGTKVEIKR
notes: in-line fusion, from pDOM5
B3: DOM10-236-ASTKGPS-DOM9-155-78 (bispecific antibody)
chain: EVQLLESGGGLVQPGGSLRLSCAASGFTFPKYDMMWVRQAPGKGLEWVSSIDHLGVNTYYADSVKGRFTISRDNSKNTLYLQMNSLRAEDTAVYYCAKESDWPSFDYWGQGTLVTVSSASTKGPSDIQMTQSPSSLSASVGDRVTITCRASRHIGDWLHWYQQKPGKAPKLLIAWASTLDSGVPSRFSGSGSGTDFTLTISSLQPEDFATYYCLQEGWGPPTFGQGTKVEIKR
notes: in-line fusion, from pDOM5
B4: DOM10-273-ASTKGPS-DOM9-155-78 (bispecific antibody)
chain: EVQLLESGGGLVQPGGSLRLSCAASGFTFELEEMDWVRQAPGKGLEWVSSISGSGGSTYYADSVKGRFTISRDNSKNTLYLQMNSLRAEDTAVYYCAKAYTGFDYWGQGTLVTVSSASTKGPSDIQMTQSPSSLSASVGDRVTITCRASRHIGDWLHWYQQKPGKAPKLLIAWASTLDSGVPSRFSGSGSGTDFTLTISSLQPEDFATYYCLQEGWGPPTFGQGTKVEIKR
notes: in-line fusion, from pDOM5
B5: DOM10-416-ASTKGPS-DOM9-155-78 (bispecific antibody)
chain: B4 chain with E30K, L31G, E32S, S50T, G53A, S54D, G56R, S57E, A99S, G102S
notes: in-line fusion, from pDOM5
B6: DOM10-277-ASTKGPS-DOM9-155-78 (bispecific antibody)
chain: EVQLLESGGGLVQPGGSLRLSCAASGFTFSSYEMDWVRQAPGKGLEWVSTISADGVTTYYADSVKGRFTISRDNSKNTLYLQMNSLRAEDTAVYYCAKAFDAFDYWGQGTLVTVSSASTKGPSDIQMTQSPSSLSASVGDRVTITCRASRHIGDWLHWYQQKPGKAPKLLIAWASTLDSGVPSRFSGSGSGTDFTLTISSLQPEDFATYYCLQEGWGPPTFGQGTKVEIKR
notes: in-line fusion, from pDOM5
B7: DOM9-112-210-ASTKGPS-DOM10-273 (bispecific antibody)
chain: EVQLLESGGGLVQPGGSLRLSCAASGFTFRNFGMGWVRQAPGKGLEWVSWIISSGTETYYADSVKGRFTISRDNSKNTLYLQMNSLRAEDTAVYYCAKSLGRFDYWGQGTLVTVSSASTKGPSEVQLLESGGGLVQPGGSLRLSCAASGFTFELEEMDWVRQAPGKGLEWVSSISGSGGSTYYADSVKGRFTISRDNSKNTLYLQMNSLRAEDTAVYYCAKAYTGFDYWGQGTLVTVSS
notes: in-line fusion, from pDOM5
B8: DOM9-112-210-ASTKGPS-DOM10-277 (bispecific antibody)
chain: EVQLLESGGGLVQPGGSLRLSCAASGFTFRNFGMGWVRQAPGKGLEWVSWIISSGTETYYADSVKGRFTISRDNSKNTLYLQMNSLRAEDTAVYYCAKSLGRFDYWGQGTLVTVSSASTKGPSEVQLLESGGGLVQPGGSLRLSCAASGFTFSSYEMDWVRQAPGKGLEWVSTISADGVTTYYADSVKGRFTISRDNSKNTLYLQMNSLRAEDTAVYYCAKAFDAFDYWGQGTLVTVSS
notes: in-line fusion, from pDOM5
B9: DOM9-112-210-ASTKGPS-DOM10-416 (bispecific antibody)
chain: B8 chain with S153K, S154G, Y155S, V179R, T180E, A222S, F223Y, D224T, A225S
notes: in-line fusion, from pDOM5
B10: DOM9-112-210-ASTKGPS-DOM10-224 (bispecific antibody)
chain: EVQLLESGGGLVQPGGSLRLSCAASGFTFRNFGMGWVRQAPGKGLEWVSWIISSGTETYYADSVKGRFTISRDNSKNTLYLQMNSLRAEDTAVYYCAKSLGRFDYWGQGTLVTVSSASTKGPSDIQMTQSPSSLSASVGDRVTITCRASPNIAVDLAWYQQKPGKAPKLLIRGVSRLQSGVPSRFSGSGSGTDFTLTISSLQPEDFATYYCRQGAMGSYTFGQGTKVEIKR
notes: in-line fusion, from pDOM5
B11: DOM10-208-TVAAPS-DOM9-155-78 (bispecific antibody)
chain: DIQMTQSPSSLSASVGDRVTITCRASSPITDGLAWYQQKPGKAPKLLIDTGSRLQSGVPSRFSGSGSGTDFTLTISSLQPEDFATYYCRQGAMGSYTFGQGTKVEIKRTVAAPSDIQMTQSPSSLSASVGDRVTITCRASRHIGDWLHWYQQKPGKAPKLLIAWASTLDSGVPSRFSGSGSGTDFTLTISSLQPEDFATYYCLQEGWGPPTFGQGTKVEIKR
notes: in-line fusion, from pDOM5
B12: DOM10-270-TVAAPS-DOM9-155-78 (bispecific antibody)
chain: DIQMTQSPSSLSASVGDRVTITCRASSVILNELHWYQQKPGKAPKLLISAVSRLQSGVPSRFSGSGSGTDFTLTISSLQPEDFATYYCLQTFWGPYTFGQGTKVEIKRTVAAPSDIQMTQSPSSLSASVGDRVTITCRASRHIGDWLHWYQQKPGKAPKLLIAWASTLDSGVPSRFSGSGSGTDFTLTISSLQPEDFATYYCLQEGWGPPTFGQGTKVEIKR
notes: in-line fusion, from pDOM5
B13: DOM9-112-210-ASTKGPS-DOM10-212 (bispecific antibody)
chain: EVQLLESGGGLVQPGGSLRLSCAASGFTFRNFGMGWVRQAPGKGLEWVSWIISSGTETYYADSVKGRFTISRDNSKNTLYLQMNSLRAEDTAVYYCAKSLGRFDYWGQGTLVTVSSASTKGPSDIQMTQSPSSLSASVGDRVTITCRASSVILNELHWYQQKPGKAPKLLISAVSRLQSGVPSRFSGSGSGTDFTLTISSLQPEDFATYYCLQTFWGPFTFGQGTKVEIKR
notes: in-line fusion, from pDOM5
B14: DOM9-112-210-DOM10-270 (bispecific antibody)
chain: B13 chain with F219Y
notes: in-line fusion, from pDOM5
B15: DOM9-112-210-ASTKGPS-DOM10-213 (bispecific antibody)
chain: EVQLLESGGGLVQPGGSLRLSCAASGFTFRNFGMGWVRQAPGKGLEWVSWIISSGTETYYADSVKGRFTISRDNSKNTLYLQMNSLRAEDTAVYYCAKSLGRFDYWGQGTLVTVSSASTKGPSDIQMTQSPSSLSASVGDRVTITCRASQAIPWGLNWYQQKPGKAPKLLIYDVSSLQSGVPSRFSGSGSGTDFTLTISSLQPEDFATYYCQQDIHIPMTFGQGTKVEIKR
notes: in-line fusion, from pDOM5
B16: DOM9-112-168 (other)
VH: EVQLLESGGGLVQPGGSLRLSCAASGFTFRNYGMAWVRQAPGKGLEWVSWIEGGGTETYYADSVKGRFTISRDNSKNTLYLQMNSLRAEDTAVYYCAKSLGRFDYWGQGTLVTVSS
notes: VH dAb
B17: DOM9-44 (other)
VL: DIQMTQSPSSLSASVGDRVTITCRASQNINFWLRWYQQKPGKAPTLLIYDASALQSGVPSRFSGSGSGTDFTLTISSLQPEDFATYYCQQDFNPPYTFGQGTKVEIKR
notes: Vk dAb

One assay concerns the target T1, human IL-4 (human, UniProt P05112 25-153, biotinylated in the receptor binding assay and on the Biacore chip).
T1 construct: also called interleukin-4; biotinylated IL-4
T1 sequence (looked up): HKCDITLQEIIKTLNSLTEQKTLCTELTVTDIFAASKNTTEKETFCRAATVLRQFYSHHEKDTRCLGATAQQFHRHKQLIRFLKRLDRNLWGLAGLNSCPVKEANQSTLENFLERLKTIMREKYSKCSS
As to the kind of experiment: DOM9 RBA (IL-4 RBA). From the text: (§1) The wells were washed three times with 0.1% (v/v) Tween 20 in PBS, followed by three washes with PBS, before blocking with 2% (w/v) BSA in PBS. […] The reaction was stopped by the addition of HCl and the absorbance read at 450 nm.
Consider B1, for which the IC50 came out at 6.91 nM.
B2 came in with an IC50 of 6.65 nM.
Still for that read-out and setting: then B3, with 2.54 nM; and B4, with 2.25 nM.
Regarding B5, the 50% inhibitory concentration (IC50) was 5.88 nM.
In the case of B6, the IC50 was 9.45 nM.
Same read-out and setting: as for B7, the figure is 10.5 nM; as for B8, 11.7 nM; as for B9, 7.27 nM.
The same measure, in the same setting: as for B10, the figure is 2.75 nM; as for B11, 8.18 nM; as for B12, 8.6 nM.
The molecule B13 registered an IC50 of 3.21 nM.
B14 yielded an IC50 of 2.79 nM.
Same read-out and setting: as for B15, the figure is 4.29 nM.

For another assay, the target named is T2, human IL-13 (human, UniProt P35225 35-146, biotinylated on the Biacore chip).
T2 construct: also called hIL-13; recombinant human IL-13
T2 sequence (P35225 35-146 limits assumed): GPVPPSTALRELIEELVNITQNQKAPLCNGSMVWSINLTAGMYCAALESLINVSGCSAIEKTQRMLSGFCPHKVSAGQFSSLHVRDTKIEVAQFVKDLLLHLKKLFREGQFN
As to the kind of experiment: Dom10 RBA (IL-13 sandwich ELISA per paragraph 471). The procedure:
A MAXISORP™ plate (high protein binding ELISA plate, Nunc, Denmark) was coated overnight with 2.5 μg/ml coating antibody (Module Set, Bender MedSystems, Vienna, Austria), then washed once with 0.05% (v/v) Tween 20 in PBS before blocking with 0.5% (w/v) BSA 0.05% (v/v) Tween 20 in PBS. […] The plate was then incubated with TMB substrate (KPL, Gaithersburg, USA), and the reaction was stopped by the addition of HCl and the absorbance read at 450 nm.
On the technique in general: ELISA stands for enzyme-linked immunosorbent assay.
For B1, the response was half-maximal at 62 nM (EC50).
On the same count and under the same terms, as for B2, the figure is 10.8 nM.
Turning to B3, it took 372 nM to reach a half-maximal effect (EC50).
As to B4, a half-maximal effect (EC50) was put at 185 nM.
On the same count and under the same terms, then B5, with 444 nM.
In turn, B6 yielded an EC50 of 648 nM.
On the same count and under the same terms, as for B7, the figure is 4550 nM; as for B8, 4380 nM; as for B9, 34400 nM.
Still for that read-out and setting: then B10, with 4580 nM; and B11, with 4240 nM; and B12, with 37.2 nM.
On the same count and under the same terms, as for B13, the figure is 1000 nM; as for B14, 398 nM.
As for B15, the half-maximal effective concentration (EC50) turned out to be 1150 nM.

The target in a further assay is T1, human IL-4. The assay is described as follows: IL-4 RBA: ELISA, IL-4R/Fc coated, biotinylated IL-4.
From the text: as §1
Regarding B16, the IC50 is 1.22 nM and 0.64 nM.
Turning to B17, the IC50 was found to be 122 nM.

One may read the IC50 as the point on the concentration scale where inhibition reaches its midpoint. High values mean weaker potency, low ones greater potency. By EC50 is commonly meant the concentration needed to bring the measured effect to its halfway point. Lower therefore signals higher potency in that assay.
